Reference: publication PMC3074162
Where two headings read alike, the source gives them in different places.

Key:
[1] = target: ParB 65–139 (C-terminal DNA-binding RHH domain of pCXC100 ParB) (Leifsonia xyli subsp. cynodontis (plasmid pCXC100)) (UniProt Q6ABV9); assay: crystal structure
[2] = target: T1, ParB 65-139 (RHH domain) (Leifsonia xyli subsp. cynodontis …, UniProt Q6EEF9 65-139); assay: EMSA
T1 sequence: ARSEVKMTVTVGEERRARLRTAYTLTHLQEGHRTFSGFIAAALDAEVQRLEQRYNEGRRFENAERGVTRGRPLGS

[3] = target: T1, ParB 65-139 (RHH domain); assay: ITC
[4] = target: T1, ParB 65-139 (RHH domain); assay: ITC; remark: listed apart in the source
[5] = target: T1, ParB 65-139 (RHH domain); assay: ITC; remark: listed apart in the source
[6] = target: T1, ParB 65-139 (RHH domain); assay: EMSA; remark: listed apart in the source
[7] = target: T1, ParB 65-139 (RHH domain); assay: EMSA; remark: listed apart in the source
[8] = target: T1, ParB 65-139 (RHH domain); assay: EMSA; remark: listed apart in the source
[9] = target: T1, ParB 65-139 (RHH domain); assay: ITC; remark: listed apart in the source
[10] = target: T1, ParB 65-139 (RHH domain); assay: EMSA; remark: listed apart in the source
[11] = target: T1, ParB 65-139 (RHH domain); assay: EMSA; remark: listed apart in the source
[12] = target: T1, ParB 65-139 (RHH domain); assay: ITC; remark: listed apart in the source

For “ParB 65–139 (C-terminal DNA-binding RHH domain of pCXC100 ParB) (from UniProt Q6ABV9 65-139) (domain or fragment)”, the stoichiometry N [1] was 2.

B1: R4-18+1 (dsDNA)
DNA 1: GAAAAGCCAGAAACAGTG
DNA 2: CACTGTTTCTGGCTTTTC
B1: binds [2].

B2: R3-18 (dsDNA)
DNA 1: GGAATAGGTGGAAAAGCC
DNA 2: GGCTTTTCCACCTATTCC
B2 gave a Kd [3] of 0.03 ± 0.01 µM, a Kd [4] of 0.037 ± 0.01 µM and a Kd [5] of 0.031 ± 0.012 µM.

B3: 2R3'-27 (dsDNA)
DNA 1: GGAAAAGGTGGAAAAGGTGGAAAAGGT
DNA 2: ACCTTTTCCACCTTTTCCACCTTTTCC
B3 was tested, and the Kd [6] was 0.112 µM.

B4: 2R6'-27 (dsDNA)
DNA 1: GGGTAAGATGGGTAAGATGGGTAAGAT
DNA 2: ATCTTACCCATCTTACCCATCTTACCC
Molecule B4 has a Kd [7] of 0.877 µM.

B5: R2R3-18 (dsDNA)
DNA 1: AGTAGGAATAGGTGGAAA
DNA 2: TTTCCACCTATTCCTACT
B5: binds [8].

B6: R3-18-10A (dsDNA)
DNA 1: GGAATAGGTAGAAAAGCC
DNA 2: GGCTTTTCTACCTATTCC
In the case of B6, the Kd [9] is reported as 0.03 ± 0.01 µM.

B7: 1R3'-18 (dsDNA)
DNA 1: GGAAAAGGTGGAAAAGGT
DNA 2: ACCTTTTCCACCTTTTCC
B7: binds [10].

B8: R2R3-27 (dsDNA)
DNA 1: AGTAAAGTAGGAATAGGTGGAAAAGCC
DNA 2: GGCTTTTCCACCTATTCCTACTTTACT
B8: binds [11].

B9: R4-18 (dsDNA)
DNA 1: GGAAAAGCCAGAAACAGT
DNA 2: ACTGTTTCTGGCTTTTCC
Molecule B9 has a Kd [4] of 0.06 ± 0.012 µM and a Kd [5] of 0.087 ± 0.059 µM.

B10: 1R6'-18 (dsDNA)
DNA 1: GGGTAAGATGGGTAAGAT
DNA 2: ATCTTACCCATCTTACCC
B10: binds [10].

B11: R4-18-1 (dsDNA)
DNA 1: TGGAAAAGCCAGAAACAG
DNA 2: CTGTTTCTGGCTTTTCCA
B11: binds [2].

B12: R9-18 (dsDNA)
DNA 1: GGAATTGTTTGCTACGGT
DNA 2: ACCGTAGCAAACAATTCC
B12 showed a Kd [12] of 0.017 ± 0.006 µM and a Kd [5] of 0.011 ± 0.009 µM.
